Test results from US20230226151A1.

Biological target: Mouse FGFR4/β-klotho complex co-expressed in L6 cells (mouse) (UniProt Q03142)
Assay: cell-based or functional assay

Mouse FGFR4/β-klotho complex co-expressed in L6 cells (mouse), sequence (Q03142 17-799, chain 1 of 2): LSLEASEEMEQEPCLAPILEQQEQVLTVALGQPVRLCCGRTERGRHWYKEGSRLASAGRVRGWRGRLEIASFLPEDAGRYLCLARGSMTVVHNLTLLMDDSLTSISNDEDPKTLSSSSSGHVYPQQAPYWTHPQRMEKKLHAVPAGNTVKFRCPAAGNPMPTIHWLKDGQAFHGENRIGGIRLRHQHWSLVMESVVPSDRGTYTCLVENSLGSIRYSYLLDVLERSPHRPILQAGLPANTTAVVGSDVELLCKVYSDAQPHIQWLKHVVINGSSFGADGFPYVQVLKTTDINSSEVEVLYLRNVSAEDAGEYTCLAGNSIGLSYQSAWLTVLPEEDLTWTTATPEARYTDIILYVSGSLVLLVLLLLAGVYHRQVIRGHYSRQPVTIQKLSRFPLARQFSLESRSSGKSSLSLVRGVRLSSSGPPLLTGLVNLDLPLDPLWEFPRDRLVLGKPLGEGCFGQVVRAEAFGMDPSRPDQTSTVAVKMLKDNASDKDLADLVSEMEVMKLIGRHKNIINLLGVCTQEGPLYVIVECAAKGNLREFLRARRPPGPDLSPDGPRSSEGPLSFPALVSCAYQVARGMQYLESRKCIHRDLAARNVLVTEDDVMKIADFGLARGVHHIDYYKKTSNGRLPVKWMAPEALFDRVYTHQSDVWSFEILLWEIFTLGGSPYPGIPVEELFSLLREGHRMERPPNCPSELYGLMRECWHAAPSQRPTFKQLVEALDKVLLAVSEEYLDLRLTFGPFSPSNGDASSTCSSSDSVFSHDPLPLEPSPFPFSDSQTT
Mouse FGFR4/β-klotho complex co-expressed in L6 cells (mouse), sequence (Q99N32 whole entry, chain 2 of 2, further chain): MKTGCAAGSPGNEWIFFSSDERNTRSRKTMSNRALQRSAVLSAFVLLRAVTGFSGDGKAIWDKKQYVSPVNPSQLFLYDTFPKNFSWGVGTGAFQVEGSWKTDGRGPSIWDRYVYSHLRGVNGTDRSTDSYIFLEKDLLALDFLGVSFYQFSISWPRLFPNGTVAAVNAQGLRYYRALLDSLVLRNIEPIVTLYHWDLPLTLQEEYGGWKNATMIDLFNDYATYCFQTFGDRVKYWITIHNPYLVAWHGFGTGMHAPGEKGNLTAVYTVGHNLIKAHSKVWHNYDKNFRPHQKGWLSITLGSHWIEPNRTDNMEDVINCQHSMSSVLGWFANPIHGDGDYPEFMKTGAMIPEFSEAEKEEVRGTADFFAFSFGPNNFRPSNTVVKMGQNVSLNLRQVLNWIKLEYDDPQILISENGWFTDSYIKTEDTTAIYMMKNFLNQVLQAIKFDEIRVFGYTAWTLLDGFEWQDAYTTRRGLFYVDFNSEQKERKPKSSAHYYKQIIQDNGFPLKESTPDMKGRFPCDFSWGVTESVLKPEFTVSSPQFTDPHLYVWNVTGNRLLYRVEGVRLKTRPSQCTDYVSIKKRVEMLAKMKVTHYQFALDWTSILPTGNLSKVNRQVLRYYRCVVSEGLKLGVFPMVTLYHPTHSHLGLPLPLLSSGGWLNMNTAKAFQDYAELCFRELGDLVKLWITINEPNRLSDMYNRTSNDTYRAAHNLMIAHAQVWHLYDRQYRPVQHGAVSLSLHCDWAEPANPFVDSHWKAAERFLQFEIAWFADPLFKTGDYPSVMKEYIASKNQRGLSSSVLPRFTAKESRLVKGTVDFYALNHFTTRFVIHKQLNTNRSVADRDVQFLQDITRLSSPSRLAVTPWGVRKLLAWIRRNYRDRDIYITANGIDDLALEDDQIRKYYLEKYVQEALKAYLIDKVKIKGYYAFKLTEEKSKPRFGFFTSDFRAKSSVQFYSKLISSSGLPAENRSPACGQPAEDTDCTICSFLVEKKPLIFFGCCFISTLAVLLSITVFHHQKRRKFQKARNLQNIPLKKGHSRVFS

Work on “FGF19 (wild type human fibroblast growth factor 19) (from UniProt O95750 23-216) (ligand)” yielded an EC50 (pM), ELK1 luciferase reporter in L6 cells of 52.5 pM and an Emax (fold potentiation), ELK1 luciferase reporter in L6 cells (fold potentiation) of 1.82.
